Legend:
His6-Cdc20^ΔN60 S92E = molecular target: T1, His6-Cdc20^ΔN60 S92E (human, UniProt Q12834 61-499, S92E); experiment: pull-down; purified His6–Cdc20^ΔN60 WT or S92E immobilised on Ni-NTA beads, incubated with BubR1N and Mad2, 1 h at room temperature, five washes, immunoblotting; conditions: both partners purified
T1 construct: Cdc20, human, residues 61-499 (Cdc20^ΔN60), phospho-mimicking S92E; also called Cdc20 S92E; source: Sf9, purified (Ni-NTA)

His6-Cdc20^ΔN60 WT = molecular target: T2, His6-Cdc20^ΔN60 WT (human, UniProt Q12834 61-499); experiment: as above; conditions: both partners purified
T2 construct: Cdc20, human, residues 61-499 (Cdc20^ΔN60); also called Cdc20 WT; recombinant Cdc20; source: Sf9, purified (Ni-NTA)
T2 sequence (Q12834 61-499, stated change not applied): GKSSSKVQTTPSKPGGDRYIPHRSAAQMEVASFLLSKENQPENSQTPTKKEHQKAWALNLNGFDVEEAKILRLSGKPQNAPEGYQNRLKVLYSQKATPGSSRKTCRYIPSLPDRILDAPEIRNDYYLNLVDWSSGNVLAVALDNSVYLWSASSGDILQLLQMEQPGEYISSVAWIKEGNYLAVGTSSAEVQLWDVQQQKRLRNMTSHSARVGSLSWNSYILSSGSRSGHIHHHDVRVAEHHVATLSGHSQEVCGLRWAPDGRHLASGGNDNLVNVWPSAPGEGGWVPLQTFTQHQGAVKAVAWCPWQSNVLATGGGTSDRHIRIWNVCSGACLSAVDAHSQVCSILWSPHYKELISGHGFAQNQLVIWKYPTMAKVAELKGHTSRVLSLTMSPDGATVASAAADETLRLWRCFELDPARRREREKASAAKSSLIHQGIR

T1 sequence (Q12834 61-499 S92E): as the sequence (Q12834 61-499, stated change not applied) above, with S32E counted along it

binding result (His6-Cdc20^ΔN60 S92E): binds | binding result (His6-Cdc20^ΔN60 WT): binds
B1: BubR1 N-terminal fragment (BubR1N; residues 1–370) (domain or fragment, human, UniProt O60566 1-370, looked up)
chain: MAAVKKEGGALSEAMSLEGDEWELSKENVQPLRQGRIMSTLQGALAQESACNNTLQQQKRAFEYEIRFYTGNDPLDVWDRYISWTEQNYPQGGKESNMSTLLERAVEALQGEKRYYSDPRFLNLWLKLGRLCNEPLDMYSYLHNQGIGVSLAQFYISWAEEYEARENFRKADAIFQEGIQQKAEPLERLQSQHRQFQARVSRQTLLALEKEEEEEVFESSVPQRSTLAELKSKGKKTARAPIIRVGGALKAPSQNRGLQNPFPQQMQNNSRITVFDENADEASTAELSKPTVQPWIAPPMPRAKENELQAGPWNTGRSLEHRPRGNTASLIAVPAVLPSFTPYVEETARQPVMTPCKIEPSINHILSTRK
notes: source: bacteria, purified (Ni-NTA, TEV digestion, Resource Q, Superdex 200)

— PMC4773433, “The Bub1–Plk1 kinase complex promotes spindle checkpoint signalling through Cdc20 phosphorylation” (Nature Communications, 2016)
